Results on 19 molecules are retold here after patent US20190119358A1.

*1 amine or outer side, *2 acyl side, *3 side chain or, on linkers, in order; H or OH if unused. Bridges are numbered along the chain shown (N, C = ends). Primed or numbered codes have the meaning given here. Where no end group is shown, it is not given here. [ ]: non-standard residue; d: D form. The star is where a group is joined. ξ: configuration not given here. DAPTZAC3 = (S)-3-(4-(3-acrylamidopropyl)-1H-1,2,3-triazol-1-yl)-2-aminopropanoic acid, C=CC(=O)NCCCc1cn(C[C@H](N[*:1])C(=O)[*:2])nn1; DAPTZAC2 = (S)-3-(4-(2-acrylamidoethyl)-1H-1,2,3-triazol-1-yl)-2-aminopropanoic acid, C=CC(=O)NCCc1cn(C[C@H](N[*:1])C(=O)[*:2])nn1; DAPTZAC1 = (S)-3-(4-(acrylamidomethyl)-1H-1,2,3-triazol-1-yl)-2-aminopropanoic acid, C=CC(=O)NCc1cn(C[C@H](N[*:1])C(=O)[*:2])nn1; ADTZPA″ = (S)-2-amino-3-(1-dodecyl-1H-1,2,3-triazol-4-yl)propanoic acid, CCCCCCCCCCCCn1cc(C[C@H](N[*:1])C(=O)[*:2])nn1; MORAC = (S)-5-acrylamido-2-(methylamino)pentanoic acid, C=CC(=O)NCCC[C@@H](C(=O)[*:2])N(C)[*:1]; DABAC1 = (S)-4-acrylamido-2-aminobutanoic acid, C=CC(=O)NCC[C@H](N[*:1])C(=O)[*:2]; Trp(7-aza) = N[C@@H](Cc1c[nH]c2ncccc12)C(=O)O; NMePhe(4-F) = CN[C@@H](Cc1ccc(F)cc1)C(=O)O; ivDde = CC(C)CC(=C1C(=O)CC(C)(C)CC1=O)*; mXylylene = c1cc(C[*:1])cc(C[*:2])c1; Glutaryl = O=C(CCCC(=O)[*:2])[*:1]; dPhg = N[C@@H](C(=O)O)c1ccccc1; Chg = N[C@H](C(=O)O)C1CCCCC1; PEG4 = NCCOCCOCCOCCOCCC(=O)O; Phg = N[C@H](C(=O)O)c1ccccc1; Tle = CC(C)(C)[C@H](N)C(=O)O; ξPhg = NC(C(=O)O)c1ccccc1; NMeA = CN[C@@H](C)C(=O)O; Pra = C#CC[C@H](N)C(=O)O; Dab = NCC[C@H](N)C(=O)O; Nva = CCC[C@H](N)C(=O)O; Dap = NC[C@H](N)C(=O)O; Acryloyl = C=CC(=O)*; PEG1 = NCCOCCC(=O)O; Ahx = NCCCCCC(=O)O; Sar = CNCC(=O)O

The labels stand for the following.
B1: R4153 (peptide)
peptide: Ac-[Nva]CY[Tle]KA[NMeA][dPhg][Trp(7-aza)]Y[NMePhe(4-F)][Sar]C-NH2
modifications: linker 2-13 via mXylylene
SMILES: CCC[C@H](NC(C)=O)C(=O)N[C@H]1CSCc2cccc(c2)CSC[C@@H](C(N)=O)NC(=O)CN(C)C(=O)[C@H](Cc2ccc(F)cc2)N(C)C(=O)[C@H](Cc2ccc(O)cc2)NC(=O)[C@H](Cc2c[nH]c3ncccc23)NC(=O)[C@@H](c2ccccc2)NC(=O)[C@H](C)N(C)C(=O)[C@H](C)NC(=O)[C@H](CCCCN)NC(=O)[C@H](C(C)(C)C)NC(=O)[C@H](Cc2ccc(O)cc2)NC1=O
B2: R4141 (peptide)
peptide: Ac-[Nva]CY[Tle]A[Dap][NMeA][Phg][Trp(7-aza)]Y[NMePhe(4-F)][Sar]C-NH2
modifications: linker 2-13 via mXylylene
SMILES: CCC[C@H](NC(C)=O)C(=O)N[C@H]1CSCc2cccc(c2)CSC[C@@H](C(N)=O)NC(=O)CN(C)C(=O)[C@H](Cc2ccc(F)cc2)N(C)C(=O)[C@H](Cc2ccc(O)cc2)NC(=O)[C@H](Cc2c[nH]c3ncccc23)NC(=O)[C@H](c2ccccc2)NC(=O)[C@H](C)N(C)C(=O)[C@H](CN)NC(=O)[C@H](C)NC(=O)[C@H](C(C)(C)C)NC(=O)[C@H](Cc2ccc(O)cc2)NC1=O
B3: R4136 (peptide)
peptide: Ac-[Nva]CY[Tle]A[Dap](Acryloyl)[NMeA][Phg][Trp(7-aza)]Y[NMePhe(4-F)][Sar]C-NH2
modifications: linker 2-13 via mXylylene
SMILES: C=CC(=O)NC[C@@H]1NC(=O)[C@H](C)NC(=O)[C@H](C(C)(C)C)NC(=O)[C@H](Cc2ccc(O)cc2)NC(=O)[C@@H](NC(=O)[C@H](CCC)NC(C)=O)CSCc2cccc(c2)CSC[C@@H](C(N)=O)NC(=O)CN(C)C(=O)[C@H](Cc2ccc(F)cc2)N(C)C(=O)[C@H](Cc2ccc(O)cc2)NC(=O)[C@H](Cc2c[nH]c3ncccc23)NC(=O)[C@H](c2ccccc2)NC(=O)[C@H](C)N(C)C1=O
B4: R4151 (peptide)
peptide: Ac-[Nva]SY[Tle]A[DAPTZAC2][NMeA][ξPhg][Trp(7-aza)]Y[NMePhe(4-F)][Sar]S-NH2
modifications: also: places Phg, 7-azaTrp, NMe-4-F-Phe, Sar at 9, 10, 12, 13
B5: R4148 (peptide)
peptide: Ac-[Nva]SY[Tle]A[DAPTZAC3][NMeA][ξPhg][Trp(7-aza)]Y[NMePhe(4-F)][Sar]S-NH2
modifications: also: places Phg, 7-azaTrp, NMe-4-F-Phe, Sar at 9, 10, 12, 13
B6: R4140 (peptide)
peptide: Ac-[Nva]CY[Tle]A[Dab][NMeA][Phg][Trp(7-aza)]Y[NMePhe(4-F)][Sar]C-NH2
modifications: linker 2-13 via mXylylene
SMILES: CCC[C@H](NC(C)=O)C(=O)N[C@H]1CSCc2cccc(c2)CSC[C@@H](C(N)=O)NC(=O)CN(C)C(=O)[C@H](Cc2ccc(F)cc2)N(C)C(=O)[C@H](Cc2ccc(O)cc2)NC(=O)[C@H](Cc2c[nH]c3ncccc23)NC(=O)[C@H](c2ccccc2)NC(=O)[C@H](C)N(C)C(=O)[C@H](CCN)NC(=O)[C@H](C)NC(=O)[C@H](C(C)(C)C)NC(=O)[C@H](Cc2ccc(O)cc2)NC1=O
B7: R4005 (peptide)
peptide: Ac-[Nva]SY[Tle]A[DAPTZAC1][NMeA][ξPhg][Trp(7-aza)]Y[NMePhe(4-F)][Sar]S-NH2
B8: R4138 (peptide)
peptide: Glutaryl-[Nva]CY[Tle]K(ivDde)H[NMeA][Phg][Trp(7-aza)]Y[NMePhe(4-F)][Sar]C-NH2
modifications: linker 2-13 via m‑xylylene
B9: R4146 (peptide)
peptide: Ac-[Nva]CY[Tle]A[DABAC1][NMeA][Phg][Trp(7-aza)]Y[NMePhe(4-F)][Sar]C-NH2
modifications: linker 2-13 via mXylylene
SMILES: C=CC(=O)NCC[C@@H]1NC(=O)[C@H](C)NC(=O)[C@H](C(C)(C)C)NC(=O)[C@H](Cc2ccc(O)cc2)NC(=O)[C@@H](NC(=O)[C@H](CCC)NC(C)=O)CSCc2cccc(c2)CSC[C@@H](C(N)=O)NC(=O)CN(C)C(=O)[C@H](Cc2ccc(F)cc2)N(C)C(=O)[C@H](Cc2ccc(O)cc2)NC(=O)[C@H](Cc2c[nH]c3ncccc23)NC(=O)[C@H](c2ccccc2)NC(=O)[C@H](C)N(C)C1=O
B10: R4147 (peptide)
peptide: Ac-[Nva]CY[Tle]KH[NMeA][Phg][Trp(7-aza)]Y[NMePhe(4-F)][Sar]C[PEG4][ADTZPA″]-NH2
modifications: linker 2-13 via mXylylene
B11: R4149 (peptide)
peptide: Ac-[Nva]CY[Tle]KH[NMeA][Chg][Trp(7-aza)]Y[NMePhe(4-F)][Sar]C-NH2
modifications: linker 2-13 via mXylylene
SMILES: CCC[C@H](NC(C)=O)C(=O)N[C@H]1CSCc2cccc(c2)CSC[C@@H](C(N)=O)NC(=O)CN(C)C(=O)[C@H](Cc2ccc(F)cc2)N(C)C(=O)[C@H](Cc2ccc(O)cc2)NC(=O)[C@H](Cc2c[nH]c3ncccc23)NC(=O)[C@H](C2CCCCC2)NC(=O)[C@H](C)N(C)C(=O)[C@H](Cc2c[nH]cn2)NC(=O)[C@H](CCCCN)NC(=O)[C@H](C(C)(C)C)NC(=O)[C@H](Cc2ccc(O)cc2)NC1=O
B12: R4143 (peptide)
peptide: Ac-[Nva]CY[Tle]KH[NMeA]A[Trp(7-aza)]Y[NMeA][Sar]CGGGCVIM
modifications: linker 2-13 via mXylylene
B13: R4139 (peptide)
peptide: cyclo([PEG1]Y[Tle]KH[NMeA][Phg][Trp(7-aza)]Y[NMePhe(4-F)][Sar][Pra])
SMILES: C#CC[C@@H]1NC(=O)CN(C)C(=O)[C@H](Cc2ccc(F)cc2)N(C)C(=O)[C@H](Cc2ccc(O)cc2)NC(=O)[C@H](Cc2c[nH]c3ncccc23)NC(=O)[C@H](c2ccccc2)NC(=O)[C@H](C)N(C)C(=O)[C@H](Cc2c[nH]cn2)NC(=O)[C@H](CCCCN)NC(=O)[C@H](C(C)(C)C)NC(=O)[C@H](Cc2ccc(O)cc2)NC(=O)CCOCCNC1=O
B14: R4144 (peptide)
peptide: Ac-[Nva]CY[Tle]K[dP][NMeA][Phg][Trp(7-aza)]Y[NMePhe(4-F)][Sar]C-NH2
modifications: linker 2-13 via mXylylene
SMILES: CCC[C@H](NC(C)=O)C(=O)N[C@H]1CSCc2cccc(c2)CSC[C@@H](C(N)=O)NC(=O)CN(C)C(=O)[C@H](Cc2ccc(F)cc2)N(C)C(=O)[C@H](Cc2ccc(O)cc2)NC(=O)[C@H](Cc2c[nH]c3ncccc23)NC(=O)[C@H](c2ccccc2)NC(=O)[C@H](C)N(C)C(=O)[C@H]2CCCN2C(=O)[C@H](CCCCN)NC(=O)[C@H](C(C)(C)C)NC(=O)[C@H](Cc2ccc(O)cc2)NC1=O
B15: R4137 (peptide)
peptide: cyclo([Ahx]Y[Tle]KH[NMeA][Phg][Trp(7-aza)]Y[NMePhe(4-F)][Sar][Pra])
SMILES: C#CC[C@@H]1NC(=O)CN(C)C(=O)[C@H](Cc2ccc(F)cc2)N(C)C(=O)[C@H](Cc2ccc(O)cc2)NC(=O)[C@H](Cc2c[nH]c3ncccc23)NC(=O)[C@H](c2ccccc2)NC(=O)[C@H](C)N(C)C(=O)[C@H](Cc2c[nH]cn2)NC(=O)[C@H](CCCCN)NC(=O)[C@H](C(C)(C)C)NC(=O)[C@H](Cc2ccc(O)cc2)NC(=O)CCCCCNC1=O
B16: R4142 (peptide)
peptide: Ac-[Nva]CY[Tle]AH[MORAC][Phg][Trp(7-aza)]Y[NMePhe(4-F)][Sar]C-NH2
modifications: linker 2-13 via mXylylene
SMILES: C=CC(=O)NCCC[C@H]1C(=O)N[C@@H](c2ccccc2)C(=O)N[C@@H](Cc2c[nH]c3ncccc23)C(=O)N[C@@H](Cc2ccc(O)cc2)C(=O)N(C)[C@@H](Cc2ccc(F)cc2)C(=O)N(C)CC(=O)N[C@H](C(N)=O)CSCc2cccc(c2)CSC[C@H](NC(=O)[C@H](CCC)NC(C)=O)C(=O)N[C@@H](Cc2ccc(O)cc2)C(=O)N[C@@H](C(C)(C)C)C(=O)N[C@@H](C)C(=O)N[C@@H](Cc2c[nH]cn2)C(=O)N1C
B17: R4145 (peptide)
peptide: cyclo(Y[Tle]KH[NMeA][Phg][Trp(7-aza)]Y[NMePhe(4-F)][Sar][Pra])
SMILES: C#CC[C@@H]1NC(=O)CN(C)C(=O)[C@H](Cc2ccc(F)cc2)N(C)C(=O)[C@H](Cc2ccc(O)cc2)NC(=O)[C@H](Cc2c[nH]c3ncccc23)NC(=O)[C@H](c2ccccc2)NC(=O)[C@H](C)N(C)C(=O)[C@H](Cc2c[nH]cn2)NC(=O)[C@H](CCCCN)NC(=O)[C@H](C(C)(C)C)NC(=O)[C@H](Cc2ccc(O)cc2)NC1=O
B18: R4150 (peptide)
peptide: Ac-[Nva]CY[Tle]K(4‑(dimethylamino)benzoyl‑2,3,5,6‑d4)H[NMeA][Phg][Trp(7-aza)]Y[NMePhe(4-F)][Sar]C-NH2
modifications: linker 2-13 via mXylylene
B19: R4152 (peptide)
peptide: Ac-[Nva]CA[Tle]KH[NMeA][Phg][Trp(7-aza)]Y[NMePhe(4-F)][Sar]C-NH2
modifications: linker 2-13 via mXylylene
SMILES: CCC[C@H](NC(C)=O)C(=O)N[C@H]1CSCc2cccc(c2)CSC[C@@H](C(N)=O)NC(=O)CN(C)C(=O)[C@H](Cc2ccc(F)cc2)N(C)C(=O)[C@H](Cc2ccc(O)cc2)NC(=O)[C@H](Cc2c[nH]c3ncccc23)NC(=O)[C@H](c2ccccc2)NC(=O)[C@H](C)N(C)C(=O)[C@H](Cc2c[nH]cn2)NC(=O)[C@H](CCCCN)NC(=O)[C@H](C(C)(C)C)NC(=O)[C@H](C)NC1=O

This assay has as its target GMPPNP-loaded H-Ras or GTP-loaded K-Ras. Description: FP competition, displacement of probe R4007 from Ras.
The term IC50 denotes the midpoint of a concentration-inhibition curve. The low end stands for inhibition by little substance, the high end for a need for much substance. Turning to B1, the IC50 is 36400 nM.
Molecule B2 registered an IC50 of 695 nM.
The value for B3 was 392 nM.
B4 displayed an IC50 of 12200 nM.
In the case of B5 it was 6000 nM; in that of B6, 608 nM; in that of B7, 2070 nM.
The value for B8 was 461 nM; that for B9 was 3390 nM; that for B10 was 5190 nM.
The value for B11 was 6260 nM.
B12 showed an IC50 of 1640 nM.
The molecule B13 had an IC50 of 522 nM.
The value for B14 was 1960 nM.
As for B15, the IC50 came out at 411 nM.
The value for B16 was 1240 nM.
The molecule B17 came in with an IC50 of 2800 nM.
On to B18, for which the IC50 came to 7640 nM.
In the case of B19 it was 28300 nM.
